In US10131920B2, “Nucleic acid molecules” (MEDIMMUNE LIMITED, priority 2013, dated 2018):

B1: H1-B tRNA: tRNA-B (A52C) under control of the H1 promoter (nucleic acid)
DNA: AATATTTGCATGTCGCTATGTGTTCTGGGAAATCACCATAAACGTGAAATCCCTATCAGTGATAGAGACTTATAAGTTCCCTATCAGTGATAGAGACACCAGGAAACCTGATCATGTAGATCGAATGGACTCTAAATCCGTTCAGCCGGGTCAGATTCCCGGGGTTTCCGGACAAGTGCGGTTTTTTT
modifications: Synthetic sequence H1 tRNA-B construct
notes: tRNA-B (A52C) under control of the H1 promoter
B2: 3×Glu: three tandem repeats of the murine tRNA glu and pyltRNA bicistronic pair (nucleic acid)
DNA: GCCGTGACCTCGGGCCGACGCTCCCTGGTGGTCTAGTGGTTAGGATTCGGCGCTCTCACCGCCGCGGCCCGGGTTCGATTCTCGGTCAGGGAAGCCTCTCCCCCAAACCTCGGAAACCTGATCATGTAGATCGAATGGACTCTAAATCCGTTCAGCCGGGTTAGATTCCCGGGGTTTCCGCTTCTTCCTCTTTTCTGCACCCTCACTTCAGCTGAGCCGTGACCTCGGGCCGACGCTCCCTGGTGGTCTAGTGGTTAGGATTCGGCGCTCTCACCGCCGCGGCCCGGGTTCGATTCTCGGTCAGGGAAGCCTCTCCCCCAAACCTCGGAAACCTGATCATGTAGATCGAATGGACTCTAAATCCGTTCAGCCGGGTTAGATTCCCGGGGTTTCCGCTTCTTCCTCTTTTCTGCACCCCAATATTGCCGTGACCTCGGGCCGACGCTCCCTGGTGGTCTAGTGGTTAGGATTCGGCGCTCTCACCGCCGCGGCCCGGGTTCGATTCTCGGTCAGGGAAGCCTCTCCCCCAAACCTCGGAAACCTGATCATGTAGATCGAATGGACTCTAAATCCGTTCAGCCGGGTTAGATTCCCGGGGTTTCCGTAGCGTCCTTTTTGGAAAGACAAGTGGGTGGCGAATTCGATATC
modifications: Synthetic sequence 3x tRNAglu-pyl DNA construct including 3 repeats of the bicistronic construct tRNAglu-tRNApyl
notes: three tandem repeats of the murine tRNA glu and pyltRNA bicistronic pair
B3: 2×Asp: two tandem repeats of the murine tRNA asp-pyl tRNA bicistronic pair (nucleic acid)
DNA: TCCTCGTTAGTATAGTGGTGAGTATCCCCGCCTGTCACCCGCGAGACCGGCGTTCCATTCCCCGACGGGGAGACGTAGCCCCACCTCGGAAACCTGATCATGTAGATCGAATGGACTCTAAATCCGTTCAGCCGGGTTAGATTCCCGGGGTTTCCGTAGCGTCCTTTTTGGAAAGACAAGGTGCGTCGTAGTCGGCGTTGTCCTCGTTAGTATAGTGGTGAGTATCCCCGCCTGTCACCCGCGAGACCGGCGTTCCATTCCCCGACGGGGAGACGTAGCCCCACCTCGGAAACCTGATCATGTAGATCGAATGGACTCTAAATCCGTTCAGCCGGGTTAGATTCCCGGGGTTTCCGTAGCGTCCTTTTT
modifications: Synthetic sequence 2x tRNAasp-pyl DNA construct including 2 repeats of the bicistronic construct tRNAasp-pyl
notes: two tandem repeats of the murine tRNA asp-pyl tRNA bicistronic pair

Tested on: GFPY40 reporter in 3H7 cells
Experiment: Amber suppression-dependent GFP expression (GFPY40 reporter), transient transfection of 3H7 cells, flow cytometry
Type: cell-based
Details: three days; for GFP MFI, FIG. 11: 1 ug GFPY40 and 1 ug tRNA expression vector, lys-azide
Method: To assess the function of the tRNA variants, an in vitro assay was established where cells are transiently transfected with a tRNA construct and a reporter construct encoding GFP containing an amber codon interrupting its reading frame (GFPY40). HEK293 cells stably expressing pylRS were transiently transfected with various tRNA constructs (1 ug) and the GFPY40 reporter (1 ug). In the absence of elements that support amber suppression, a truncated GFP protein is generated and the cell is not fluorescent. However, the introduction of a functional tRNA and the presence of a nnAA that supports amber suppression allows for the production of full length GFP resulting in fluorescent cells. The level of GFP expression reflects the efficiency of amber suppression and is quantified by flow cytometry. tRNA genes encoding wild type tRNApyl (WT tRNA), or containing mutations in the B-box (B tRNA—SEQ ID No 9), in both the A and B box (A2B tRNA—SEQ ID No 10), or in the A box (A1 tRNA-SEQ ID No 7; or A2 tRNA SEQ ID No 11), all under control of the H1 promoter were generated by site directed mutagenesis and assayed. The H1 promoter ensured that the variants were expressed and allowed us to examine the functional effects of the mutations introduced into the tRNA genes. In addition a sample transfected with GFPY40 alone was generated to establish background GFP levels. The transfected cells were grown in presence of the aminoacid analogue lys azide (2 mM) and incubated for 18 hours. GFP fluorescence was then assayed by flow cytometry and mean fluorescence intensity determined for each sample. Data were analysed with FCS Express and the mean fluorescence intensity of each sample determined using markers that constrain the data set to cells showing fluorescence above negative controls. […] The constructs thus are functional and may contain the necessary genetic sequence to enable the expression of the tRNA also in the absence of an upstream promoter element such as the H1 promoter.
Having established that the B mutation introduced into the pyltRNA sequence enabled expression of the tRNA that supported amber suppression we then asked whether this mutation affected the orthogonality of the tRNA and led to the incorporation of natural amino acids. To do this 3H7 cells were transiently transfected with expression constructs encoding WT-tRNA, B-tRNA, H1-tRNA and H1-B tRNA along with the GFPY40 reporter. Transfected cells were grown in the presence of 2 mM lys azide or absence of nnAA as indicated (FIG. 6), and GFP expression assessed by flow cytometry after three days. In addition, a sample transfected only with GFPY40 was examined to determine background amber suppression levels in the absence of tRNA. […] A comparison of GFP expression between the WT tRNA (MFI 33,781) and tRNA B (232,505) lacking extragenic promoter elements confirms that the B mutation generates a functional intragenic promoter. Indeed, the B tRNA construct enabled a seven-fold increase in the level of amber suppression dependent expression of GFP over WT tRNA.
We also tested the utility of a bicistronic tRNA expression construct for its ability to express tRNApyl. Here, the murine tRNA Glu and tRNA Asp were utilized. In each case, multiple repeats of the constructs were generated to increase activity (3×Glu-pyl and 2×Asp-pyl). Here, 3H7 cells were transiently transfected with 1 ug of the reporter construct GFPY40 and 1 ug of the indicated tRNA expression vectors (FIG. 11) and incubated with lys-azide for three days. Data were collected by flow cytometry and mean fluorescence intensities for each sample were plotted. […] The construct consisting of the 7SL WT tRNA (MFI=312) was included as a metric for low efficiency. In addition cell lines containing only the GFPY40 reporter were used as negative controls (MFI=0).

| Molecule | GFP MFI in the presence of lys-azide, FIG. 6 (2 mM lys azide) | GFP MFI in the absence of nnAA, FIG. 6 (no nnAA) | GFP MFI, FIG. 11 |
| --- | --- | --- | --- |
| B1 | 313,386 | 36,217 |  |
| B2 |  |  | 419 |
| B3 |  |  | 419 |
